Measured values as given in patent US20220363757A1 (SYMPHOGEN A S, published 2022).

Key:
Experiment in all cases: SPR, Fab over captured mutant LAG-3-Fc
[1] = molecular target: T1, human LAG-3 domain 1-2 Fc fusion, chimeric construct #4 (mutated region AA 40-47) (human, UniProt P18627 23-266)
T1 construct: not shown: human IgG1 Fc, AA P101-K330
T1 chain: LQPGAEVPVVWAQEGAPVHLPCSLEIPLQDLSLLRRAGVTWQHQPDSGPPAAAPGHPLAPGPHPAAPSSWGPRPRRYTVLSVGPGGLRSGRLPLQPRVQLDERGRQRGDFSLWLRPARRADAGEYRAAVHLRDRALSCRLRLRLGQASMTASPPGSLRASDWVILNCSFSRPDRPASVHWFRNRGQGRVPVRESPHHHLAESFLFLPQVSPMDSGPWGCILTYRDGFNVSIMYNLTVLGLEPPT

[2] = molecular target: T2, human LAG-3 domain 1-2 Fc fusion, chimeric construct #6 (mutated region AA 48-55) (human, UniProt P18627 23-266)
T2 construct: not shown: human IgG1 Fc, AA P101-K330
T2 chain: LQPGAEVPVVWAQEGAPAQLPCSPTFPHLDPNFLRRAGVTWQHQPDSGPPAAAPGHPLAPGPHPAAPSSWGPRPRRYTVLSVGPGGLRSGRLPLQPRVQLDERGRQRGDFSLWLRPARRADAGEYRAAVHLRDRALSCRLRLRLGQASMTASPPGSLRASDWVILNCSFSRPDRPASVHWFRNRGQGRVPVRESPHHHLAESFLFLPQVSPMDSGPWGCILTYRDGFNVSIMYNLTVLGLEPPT

[3] = molecular target: T3, human LAG-3 domain 1-2 Fc fusion, chimeric construct #10 (mutated region AA 70-77) (human, UniProt P18627 23-266)
T3 construct: 'Q71Q' copied as printed; construct #9 prints P71Q for the same position
T3 chain: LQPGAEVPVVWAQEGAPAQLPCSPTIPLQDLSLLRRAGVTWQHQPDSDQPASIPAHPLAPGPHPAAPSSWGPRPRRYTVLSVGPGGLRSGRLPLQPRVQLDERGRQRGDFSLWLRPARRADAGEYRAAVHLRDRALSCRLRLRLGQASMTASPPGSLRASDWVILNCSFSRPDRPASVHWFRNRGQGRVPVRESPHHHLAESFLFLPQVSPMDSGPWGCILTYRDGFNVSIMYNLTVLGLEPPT
Description: The LAG-3 fusion proteins were immobilized onto a G-a-hu-IgG Fc SensEye® (Ssens BV, The Netherlands) for 15 minutes using a Continuous Flow Microspotter (CFM, Wasatch Microfluidics, Salt Lake City, US). After spotting, the SensEye® was positioned in an IBIS MX96 biosensor and captured proteins were evaluated for binding affinity. […] Fab association was performed for 15 minutes and antigen dissociation was performed for 15 minutes. The recorded binding responses were fitted to a simple Langmuir 1:1 binding model with Scrubber 2 software for calculation of the on-rate (kon or ka), off-rate (koff or kd) and affinity (KD) constants.

[4] = molecular target: T4, human LAG-3 domain 1-2 Fc fusion, chimeric construct #16 (mutated region AA 98-105) (human, UniProt P18627 23-266)
T4 construct: not shown: human IgG1 Fc, AA P101-K330
T4 chain: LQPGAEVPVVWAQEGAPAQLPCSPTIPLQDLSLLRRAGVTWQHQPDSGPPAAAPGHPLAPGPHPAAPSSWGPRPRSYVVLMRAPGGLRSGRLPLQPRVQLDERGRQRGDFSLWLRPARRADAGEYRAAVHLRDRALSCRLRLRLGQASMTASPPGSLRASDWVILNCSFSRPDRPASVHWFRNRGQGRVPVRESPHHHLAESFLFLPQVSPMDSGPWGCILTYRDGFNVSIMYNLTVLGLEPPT

[5] = molecular target: T5, human LAG-3 domain 1-2 Fc fusion, chimeric construct #17 (mutated region AA 114-117) (human, UniProt P18627 23-266)
T5 construct: not shown: human IgG1 Fc, AA P101-K330
T5 chain: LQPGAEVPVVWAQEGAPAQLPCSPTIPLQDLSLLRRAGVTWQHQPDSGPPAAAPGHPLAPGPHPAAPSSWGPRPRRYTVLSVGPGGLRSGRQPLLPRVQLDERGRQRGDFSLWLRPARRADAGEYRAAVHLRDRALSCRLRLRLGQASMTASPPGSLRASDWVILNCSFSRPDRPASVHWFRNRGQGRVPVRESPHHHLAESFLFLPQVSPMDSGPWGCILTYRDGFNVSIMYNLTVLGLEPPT

[6] = molecular target: T6, human LAG-3 domain 1-2 Fc fusion, chimeric construct #24 (mutated region AA 148-154) (human, UniProt P18627 23-266)
T6 construct: not shown: human IgG1 Fc, AA P101-K330
T6 chain: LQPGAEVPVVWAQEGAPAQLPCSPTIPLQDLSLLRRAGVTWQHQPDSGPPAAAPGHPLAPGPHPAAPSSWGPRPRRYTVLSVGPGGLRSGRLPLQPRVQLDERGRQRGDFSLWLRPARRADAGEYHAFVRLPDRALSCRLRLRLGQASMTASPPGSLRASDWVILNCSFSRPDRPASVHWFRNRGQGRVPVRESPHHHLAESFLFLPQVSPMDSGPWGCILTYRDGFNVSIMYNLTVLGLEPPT

[7] = molecular target: T7, human LAG-3 domain 1-2 Fc fusion, chimeric construct #25 (mutated region AA 154-158) (human, UniProt P18627 23-266)
T7 construct: not shown: human IgG1 Fc, AA P101-K330
T7 chain: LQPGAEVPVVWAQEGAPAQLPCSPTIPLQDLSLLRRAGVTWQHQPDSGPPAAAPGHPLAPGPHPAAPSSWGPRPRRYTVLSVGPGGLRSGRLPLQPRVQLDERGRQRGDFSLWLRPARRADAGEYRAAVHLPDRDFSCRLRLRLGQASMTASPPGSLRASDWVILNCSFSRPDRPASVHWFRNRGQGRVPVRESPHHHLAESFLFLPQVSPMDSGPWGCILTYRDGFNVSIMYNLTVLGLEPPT

[8] = molecular target: T8, human LAG-3 domain 1-2 Fc fusion, point mutation #43 P96A (human, UniProt P18627 23-266);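 further: fc fusion variants captured on anti-human IgG Fc sensor, Fab injected with association then dissociation phases, KD obtained from Langmuir one-to-one fit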
T8 construct: not shown: human IgG1 Fc, AA P101-K330
T8 sequence: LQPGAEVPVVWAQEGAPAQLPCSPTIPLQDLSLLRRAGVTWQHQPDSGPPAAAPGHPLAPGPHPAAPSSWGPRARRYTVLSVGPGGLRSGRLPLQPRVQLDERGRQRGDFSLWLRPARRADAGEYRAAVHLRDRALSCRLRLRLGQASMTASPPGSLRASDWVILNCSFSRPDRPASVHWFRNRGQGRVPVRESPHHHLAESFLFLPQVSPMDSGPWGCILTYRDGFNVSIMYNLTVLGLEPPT

Binder | KD mutant/KD wild type [1] | KD mutant/KD wild type [2] | KD mutant/KD wild type [3] | KD mutant/KD wild type [4] | KD mutant/KD wild type [5] | KD mutant/KD wild type [6] | KD mutant/KD wild type [7] | KD mutant/KD wild type [8] | binding result [1] | binding result [2] | binding result [4] | binding result [8] | binding result [6] | binding result [7]
Fab fragment of antibody 15532 (Fab, V domains shown, not shown: a dimerising Fc or GST, monomeric Fab made by GingisKHAN digestion of the IgG1) VH: QVQLQQWGAGLLRPSETLSLTCAVYGESFSGYYWNWIRQPPGKGLEWIGEINHSGSTNYNPSLKSRVTISVDTSKTQFSLKLSSVTAADTAVYYCARGWDLLDWNDYWNEYWGQGTLVTVSS VL: EIVLTQSPATLSLSPGERATLSCRASQSVSSYLAWYQQKPGQAPRLLIYDASNRATGIPARFSGSGSGTDFTLTISSLEPEDFAVYYCQQRSNWPLTFGGGTKVEIKR | 3.9 fold | 3.4 fold | 1.1 fold | 6.3 fold | 1.4 fold | 2.6 fold | 1.1 fold | 1.4 fold | – | – | – | – | – | –
Fab fragment of antibody 15431 (Fab, V domains shown, not shown: a dimerising Fc or GST, monomeric Fab made by GingisKHAN digestion of the IgG1) VH: QVQLQQSGPGLVKPSQTLSLTCAISGDSVSSNSAAWNWIRQSPSRGLEWLGRTYYRSKWYNDYAVSVKSRITINPDTSKNQFSLQLNSVTPEDTAVYYCARDDDWNDFDYWGQGTLVTVSS VL: EIVLTQSPATLSLSPGERATLSCRASQSVSSYLAWYQQKPGQAPRLLIYDASNRATGIPARFSGSGSGTDFTLTISSLEPEDFAVYYCQQRSNWPLTFGGGTKVEIKR | – | – | 1.1 fold | – | 0.5 fold | 10.6 fold | 0.8 fold | – | no binding (tested: 300 nM) | no binding (tested: 300 nM) | no binding (tested: 300 nM) | no binding (tested: 300 nM) | – | –
Fab fragment of antibody 15572 (Fab, V domains shown, not shown: a dimerising Fc or GST, monomeric Fab made by GingisKHAN digestion of the IgG1) VH: QLQLQESGPGLVKPSETLSLTCTVSGDSISSSSYYWGWIRQPPGKGLEWIGSIFYSGNTYYNPSLKSRVTISVDTSKNQFSLKLSSVTAADTAVYYCAREDDFLTDYYGAFDIWGQGTMVTVSS VL: not shown | – | – | 0.7 fold | – | 0.5 fold | – | – | – | no binding (tested: 300 nM) | no binding (tested: 300 nM) | no binding (tested: 300 nM) | no binding (tested: 300 nM) | no binding (tested: 300 nM) | no binding (tested: 300 nM)
Fab fragment of antibody 15011 (Fab, V domains shown, not shown: a dimerising Fc or GST, monomeric Fab made by GingisKHAN digestion of the IgG1) VH: EVQLLESGGGLVQPGGSLRLSCAASGFDFRSYAMMWVRQAPGKGLEWVGGINGEVGGSNTYYAPAVKGRATISRDNSKNTLYLQMNSLRAEDTAVYYCVKGAGACGICNDDIDAWGQGTLVTVSS VL: SYELTQDPAVSVALGQTVRITCSGAGSYAGSYYYGWHQQKPGQAPVTVIYDNDKRPSNIPDRFSGSSSGNTASLTITGAQAEDEADYYCGSTNDNDDGGLFGSGTKVTVLG | 0.5 fold | 0.5 fold | 1.8 fold | 7.2 fold | 2.6 fold | 1.9 fold | 1.9 fold | 0.6 fold | – | – | – | – | – | –
